In paper PMC11734896, “Engineering dimer mutants of human geranylgeranyl pyrophosphate synthase” (PLOS ONE, 2025):

Tests used:
[1] = target: T1, geranylgeranyl pyrophosphate synthase (GGPPS) (Homo sapiens, UniProt O95749, Y246D/C247L)
T1 construct: gene GGPS1

[2] = target: the molecule itself; assay: SEC; HiLoad 16/600 Superdex 200 step of the purification; 10 mM HEPES pH 7.5, 500 mM NaCl, 2 mM β-mercaptoethanol, 5% glycerol; mass estimated from a standard curve; self-association
[3] = target: the molecule itself; assay: differential scanning fluorimetry (Tm) + native gel or EMSA; oligomeric state inferred from Tm without inhibitor (10 mM HEPES pH 7.5, 100 mM NaCl, 3 mM MgCl2, 0.5 mM TCEP, 5 μM protein), supported by native-PAGE (S2 Fig); self-association

| Molecule | stoichiometry N [2] | stoichiometry N [3] | further results |
| --- | --- | --- | --- |
| C=C(C)CCO[P@@](=O)(O)OP(=O)(O)O [IPP, isopentenyl pyrophosphate] |  |  | X-ray crystal structure, 2.1 Å [1]: clearly indicated the presence of IPP within its anticipated binding site in one subunit of the dimer mutant |
| wild-type human geranylgeranyl pyrophosphate synthase (enzyme, geranylgeranyl pyrophosphate synthase (GGPPS), human; theoretical subunit mass printed as 37,424 Da; The printed subunit mass of 37,424 Da is larger than that of the untagged natural protein as I recall it, so a tag was probably kept; also called GGPPS; WT GGPPS) MEKTQETVQRILLEPYKYLLQLPGKQVRTKLSQAFNHWLKVPEDKLQIIIEVTEMLHNASLLIDDIEDNSKLRRGFPVAHSIYGIPSVINSANYVYFLGLEKVLTLDHPDAVKLFTRQLLELHQGQGLDIYWRDNYTCPTEEEYKAMVLQKTGGLFGLAVGLMQLFSDYKEDLKPLLNTLGLFFQIRDDYANLHSKEYSENKSFCEDLTEGKFSFPTIHAIWSRPESTQVQNILRQRTENIDIKKYCVHYLEDVGSFEYTRNTLKELEAKAYKQIDARGGNPELVALVKHLSKMFKEENE | 6 |  |  |
| human GGPPS Y246D/C247L mutant (enzyme, also called DL; DL mutant) MEKTQETVQRILLEPYKYLLQLPGKQVRTKLSQAFNHWLKVPEDKLQIIIEVTEMLHNASLLIDDIEDNSKLRRGFPVAHSIYGIPSVINSANYVYFLGLEKVLTLDHPDAVKLFTRQLLELHQGQGLDIYWRDNYTCPTEEEYKAMVLQKTGGLFGLAVGLMQLFSDYKEDLKPLLNTLGLFFQIRDDYANLHSKEYSENKSFCEDLTEGKFSFPTIHAIWSRPESTQVQNILRQRTENIDIKKDLVHYLEDVGSFEYTRNTLKELEAKAYKQIDARGGNPELVALVKHLSKMFKEENE | 2 |  |  |
| human GGPPS Y246D/C205A mutant (enzyme, also called DA; DA mutant) MEKTQETVQRILLEPYKYLLQLPGKQVRTKLSQAFNHWLKVPEDKLQIIIEVTEMLHNASLLIDDIEDNSKLRRGFPVAHSIYGIPSVINSANYVYFLGLEKVLTLDHPDAVKLFTRQLLELHQGQGLDIYWRDNYTCPTEEEYKAMVLQKTGGLFGLAVGLMQLFSDYKEDLKPLLNTLGLFFQIRDDYANLHSKEYSENKSFAEDLTEGKFSFPTIHAIWSRPESTQVQNILRQRTENIDIKKDCVHYLEDVGSFEYTRNTLKELEAKAYKQIDARGGNPELVALVKHLSKMFKEENE |  | 2 |  |
| human GGPPS Y246K/C247L mutant (enzyme, also called KL; KL mutant) MEKTQETVQRILLEPYKYLLQLPGKQVRTKLSQAFNHWLKVPEDKLQIIIEVTEMLHNASLLIDDIEDNSKLRRGFPVAHSIYGIPSVINSANYVYFLGLEKVLTLDHPDAVKLFTRQLLELHQGQGLDIYWRDNYTCPTEEEYKAMVLQKTGGLFGLAVGLMQLFSDYKEDLKPLLNTLGLFFQIRDDYANLHSKEYSENKSFCEDLTEGKFSFPTIHAIWSRPESTQVQNILRQRTENIDIKKKLVHYLEDVGSFEYTRNTLKELEAKAYKQIDARGGNPELVALVKHLSKMFKEENE |  | 2 |  |
